Reference: publication PMC10053369, “Recombinant Analogs of Sea Anemone Kunitz-Type Peptides Influence P2X7 Receptor Activity in Neuro-2a Cells” (Marine Drugs, 2023)
Positions of bridges follow the written chain, without caps; N, C: chain ends. No end group written: not given here.

Assays:
[1] = test system: cultured neurons of the dorsal horn of the spinal cord; conditions: cited from earlier work
Text: Activated P2X7 has also been reported to alter reactive oxygen species (ROS) in microglia/macrophages as was shown, for example, in primary rat microglial cells. In cultured neurons of the dorsal horn of the spinal ...

[2] = biological target: T1, hP2X7 (47–334 a.a., extracellular domain, 36.8 kDa) (Homo sapiens, UniProt Q99572); test: Surface plasmon resonance (Biacore 3000); assay type: binding; conditions: model: binding 1:1 (Langmuir), 25 °C, HBS-N pH 7.4, n = 3
T1 construct: hP2X7 (47–334 a.a., extracellular domain, 36.8 kDa); purchased Abbexa LTD, Cambridge, UK abx167020
T1 sequence (Q99572 47-334): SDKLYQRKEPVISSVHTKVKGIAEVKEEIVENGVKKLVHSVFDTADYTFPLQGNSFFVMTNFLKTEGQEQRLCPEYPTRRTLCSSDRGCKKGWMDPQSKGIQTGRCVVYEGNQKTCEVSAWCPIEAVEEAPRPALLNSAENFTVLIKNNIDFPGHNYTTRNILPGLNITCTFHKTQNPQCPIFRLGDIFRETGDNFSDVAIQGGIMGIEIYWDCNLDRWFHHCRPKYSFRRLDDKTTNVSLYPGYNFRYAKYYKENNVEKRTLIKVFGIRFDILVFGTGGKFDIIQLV
Protocol: SPR analysis was performed at 25 °C using a Biacore® 3000 optical biosensor (GE Healthcare, Chicago, IL, USA) and CM5 sensor chips. HBS-N (10 mM HEPES, 150 mM NaCl, pH 7.4) (Cytiva, Chicago, IL, USA) was used as a working buffer for the immobilization of hP2X7 (47–334 a.a., extracellular domain, 36.8 kDa) (abx167020 Abbexa LTD, Cambridge, UK). The carboxyl groups of the dextran biosensor chip were activated for 5 min by introducing a 1:1 mixture of 0.2 M 1-ethyl-3-(3-dimethylaminopropyl)carbodiimide hydrochloride (EDC) and 0.05 M N-hydroxysuccinimide (NHS) at a rate of 5 µL/min followed by a 1 min wash with HBS-N buffer at the same flow rate. Next, hP2X7 (15 μg/mL) in 10 mM sodium acetate (pH 5.0) was injected into the working channel of the biosensor for 10 min at a flow rate of 5 μL/min. The final level of immobilization was 12300 RU (12.3 ng of protein). The control channel without immobilized P2X7R was used to correct the effects of the nonspecific binding of analytes to the chip surface.
Lyophilized peptides were prepared as 100 μM stock solutions in HBS-N buffer. Experimental peptide samples were prepared in the range of 5–100 μM. The samples were injected through the channels of the biosensor (working and reference) at a flow rate of 10 μL/min for 6 min. The dissociation of the formed peptide/P2X7 complexes was recorded for at least 6 min from the moment of injection at the same flow rate after the injection of the sample. After each cycle of the biosensor, the bound analyte was removed by double injection of the regenerating solution (2 M NaCl, 1% CHAPS) at a flow rate of 30 μL/min for 30 s.
SPR sensorgrams were processed in Biacore 3000 Evaluation Software v.1.0 (GE Healthcare, Chicago, IL, USA) and BIAevaluation Software v. 4.1.1 (GE Healthcare, Chicago, IL, USA) using “1:1 binding (Langmuir)” and “two-state binding (conformational change)” data processing models.
The 1:1 (Langmuir) binding model is a 1:1 interaction model between a compound (C) and an immobilized protein (P) and is equivalent to the Langmuir isotherm for surface adsorption: C + P ↔ CP.
The two-state binding (conformational change) model describes the 1:1 binding of a compound (C) to an immobilized protein (P) followed by a conformational change in the complex (CP ↔ CP*). It is assumed that the conformationally changed complex can dissociate only by the reverse conformational change: C + P ↔ CP ↔ CP*. The final kinetic parameters were obtained from the models that best agree with the experimental curves for the minimum of the obtained value of chi2. The equations describing the models used are as follows: • (1) 1:1 (Langmuir) binding: Kd = koff/kon, where Kd is the equilibrium dissociation constant, koff is the dissociation rate constant, kon is the association rate constant. • (2) Reaction of two states (with conformational change): Kd = koff1/kon1 × (1 + kon2/koff2) − 1, where Kd is the equilibrium dissociation constant, koff1 is the dissociation rate constant, kon1 is the association rate constant, kon2 is the direct association rate constant for the CP ↔ transition CP*, koff2 is the inverse dissociation rate constant for the CP ↔ CP* transition.
The model describing the interaction was chosen according to the lowest chi2 parameter’s value. Chi2 is a measure of the average squared residual between the experimental data and the fitted curve.

Neuro-2a cells [3] = test: [Ca2+]i in Ca2+-free medium (Fluo-8 AM); assay type: cell-based, mouse; conditions: for [Ca2+]i in Ca-free medium: ionomycin 10 μM in the presence of ATP 1 mM, or BHQ 50 μM, n = 6
Protocol: (§1) Neuro-2a cells were seeded in 96-well plates at a density of 4 × 10^4 cells/well and incubated in DMEM for 24 h at 37 °C, 5% CO2. Then the cells were washed twice with culture medium and loaded with 5 μM Fluo-8 AM (Abcam, Cambridge, UK) dye and 1 μM Pluronic® F-127 (Sigma-Aldrich, St. Louis, MO, USA), and incubated for 40 min at 37 °C in HBSS: 140 mM NaCl, 5 mM KCl, 0.8 mM MgCl2, 2 mM CaCl2, 10 mM glucose, 10 mM HEPES, pH 7.4. Then the cells were washed two times with the same solution but without the fluorescent dye and treated with the studied peptides for 30 min at RT in the dark. In some experiments Ca^2+-free medium was used: 140 mM NaCl, 5 mM KCl, 0.8 mM MgCl2, 10 mM glucose, 10 mM HEPES, 5 mM EGTA, pH 7.4. ATP (1 mM final concentration) was added using a microinjector (20 μL/well) 10 s later the baseline recording and the readings were taken up to 50 s in 1 s intervals. The standard P2X7 inhibitor, A438079 (Sigma-Aldrich, St. Louis, MO, USA), was used as inhibitory control. Ionomycin (Sigma-Aldrich, St. Louis, MO, USA) and BHQ were used to generate a generic calcium signal in cells. 2,5,-di(t-butyl) hydroquinone (BHQ) was synthesized and kindly provided by Dr. Polonik S.N. (PIBOC FEBRAS). Fluo-8 was excited at 485 nm, and the emission at 520 nm was measured with a PHERAstar®FS plate reader (BMG LABTECH, Ortenberg, Germany). The data were processed by MARS Data Analysis v. 3.01R2 (BMG Labtech, Ortenberg, Germany). Mean values and standard error of peak height calcium were calculated.
The following supporting information can be downloaded at: https://www.mdpi.com/article/10.3390/md21030192/s1, Figure S1: The RP-HPLC elution profiles of Kunitz peptides: HCRG1 (a), HCRG2 (b), and HCRG7 (c), on a Jupiter C4 column (Phenomenex, USA), equilibrated by 0.1% TFA, in a gradient of acetonitrile concentration (0–70%) for 70 min at 1.5 mL/min. MALDI mass spectra of the average molecular weight of peptides are shown in the insert. Black solid lines accentuate fractions from which the peptides were isolated. Figure S2: 1H NMR spectra of HCRG1 (a) and HCRG7 (b). Figure S3. […]

Neuro-2a cells [4] = test: Cytoprotection against ATP-induced cell death (MTT assay); assay type: cell-based, mouse; conditions: 4 mM ATP, 48 h
Protocol: (§2) Neuro-2a neuroblastoma cells (ATCC® CCL-131™) were obtained from American Type Culture Collection (Manassas, VA, USA). The cells were cultivated in DMEM medium (BioloT, St. Petersburg, Russia) supplemented with 10% of fetal bovine serum (BioloT, St. Petersburg, Russia) and 1% penicillin/streptomycin (BioloT, St. Petersburg, Russia) at 37 °C and 5% CO2. Initially, cells were incubated in cultural flasks until sub-confluent (~80%). For testing, Neuro-2a cells were seeded in 96-well plates and experiments were started after 24 h.
The cytoprotective effect of peptides was assessed in Neuro-2a cells using the MTT assay. In brief, an aliquot (180μL) of cell suspension with a nominal cell density of 3 × 10^4 cells/well was dispensed into 96-well plates. The cells were incubated for 24 h in a humidified atmosphere containing 5% CO2 to allow cell attachment. At the end of the preincubation period, ATP (Sigma-Aldrich, St. Louis, MO, USA) was added to the cells at a concentration of 4 mM. Studied peptides were added to the cells at concentrations of 0.1, 1.0 or 10.0 μM for 1h prior to the addition of ATP. After incubation for 48 h at 37 °C cell viability was detected using the MTT as described previously. The standard P2X7 inhibitor, A438079 (Sigma-Aldrich, St. Louis, MO, USA), at a concentration of 10 μM was used as a positive control.
(§3) All data were obtained in three independent replicates and calculated values were expressed as mean ± standard error of the mean (SEM). The Student’s t-test was performed using SigmaPlot 14.0 (Systat Software Inc., San Jose, CA, USA) to determine statistical significance.

P2X7 in Neuro-2a cells = test: ATP-induced Ca2+ influx (Fluo-8 AM); assay type: cell-based, mouse; conditions: 1 mM ATP
Protocol: as §2, §1, §3

[5] = biological target: T2, hP2X7 (47-334 a.a., extracellular domain, 36.8 kDa) (human) (UniProt Q99572)
T2 sequence: T1 sequence (Q99572 47-334)

[6] = biological target: T2, hP2X7 (47-334 a.a., extracellular domain, 36.8 kDa) (human); remark: listed apart in the source
[7] = biological target: T2, hP2X7 (47-334 a.a., extracellular domain, 36.8 kDa) (human); test: SPR; Biacore 3000, hP2X7 extracellular domain amine-coupled to a CM5 chip (12300 RU), peptides 5-100 uM injected as analytes at 10 uL/min for 6 min, 25 °C, HBS-N (10 mM HEPES, 150 mM NaCl, pH 7.4); fitted with 1:1 Langmuir or two-state (conformational change) model; parameters: kon2 (two-state model, step CP to CP*): unit not given here

For `CC(C)(C)[N+]([O-])=Cc1ccccc1` [N-tert-butyl-α-phenylnitrone], the “ATP or Bz-ATP-induced ROS production” value [1] is given as “eliminated”.

In the case of “GSICLEPKVVGPCTAYLRRFYFDSETGKCTPFIYGGCEGNGNNFETLRACRAICRA (disulfide 4-54, 13-37, 29-50) [HCGS1.10]”, the Kd [2] is reported as 26.3 µM, the koff ([2]; same value printed under koff1 and koff2, average ± SD) is reported as “(4.5 ± 0.52) × 10^−3 c^−1” and the kon ([2]; same value printed under kon1 and kon2, average ± SD) is reported as “(1.71 ± 0.19) × 10^2 mole^−1c^−1”.

For `C[C@H](CCC(=O)O)C[C@H](C)C[C@H](C)C(=O)/C=C(\O)[C@H](C)C[C@H](C)C/C=C/[C@@H](C)[C@@H](O)[C@@H](C)[C@@H](O)C[C@@H]1CC[C@@](C)([C@H]2CC[C@@](C)([C@@H](C)O)O2)O1` [ionomycin], the “[Ca2+]i in Ca-free medium” value (Neuro-2a cells [3]) was “led to a significant increase in [Ca^2+]I”.

With `Nc1ncnc2c1ncn2[C@@H]1O[C@H](COP(=O)(O)OP(=O)(O)OP(=O)(O)O)[C@@H](O)[C@H]1O` [ATP, adenosine triphosphate, reference compound] the “increase in percentage of dead cells vs cells without ATP” value (Neuro-2a cells [4]) was “up to 40%”, the “intracellular Ca2+ after ATP” value (P2X7 in Neuro-2a cells) was “strong sustained increase in [Ca^2+]I” and the “[Ca2+]i response to ATP in Ca2+-free medium” value (Neuro-2a cells [3]; 1 mM ATP, Ca2+-free medium) was “did not cause an increase in [Ca^2+]I”.

Molecule HCGS1.36 (peptide) has a decrease of the 1 mM ATP-induced rise in intracellular Ca2+ (Fluo-8AM) in mouse Neuro-2a cells with endogenous P2X7, peptide 0.1-1 uM pre-incubated 30 min [5] of 53.9% and a 4 mM ATP-induced uptake of YO-PRO-1 by mouse Neuro-2a cells (P2X7 macropore), peptide 0.01-10 uM pre-incubated 10 min; dye uptake reduced to the printed percent [6] of 47.8%.

With HCGS1.10 (peptide) the decrease of the 1 mM ATP-induced rise in intracellular Ca2+ (Fluo-8AM) in mouse Neuro-2a cells with endogenous P2X7, peptide 0.1-10 uM pre-incubated 30 min; value at 0.1 uM [5] was 43.8%.

For `CC(C)(C)c1cc(O)c(C(C)(C)C)cc1O` [BHQ, 2,5,-di(t-butyl) hydroquinone], the “[Ca2+]i in Ca-free medium” value (Neuro-2a cells [3]) was “led to a significant increase in [Ca^2+]I”.

Work on HCRG1 (peptide) yielded a decrease of the 1 mM ATP-induced rise in intracellular Ca2+ (Fluo-8AM) in mouse Neuro-2a cells with endogenous P2X7, peptide 0.1-10 uM pre-incubated 30 min; value at 0.1 uM [5] of 57.5%, a koff1 (two-state model, step CP to C + P) [7] of 0.0437 c^−1 and a koff2 (two-state model, step CP* to CP) [7] of 0.0015 c^−1. For the same molecule, the kon1 (two-state model, step C + P to CP) [7] was 920 mole^−1c^−1 and the kon2 (two-state model, step CP to CP*) [7] was 0.0085.

In the case of HCGS1.19 (peptide), the decrease of the 1 mM ATP-induced rise in intracellular Ca2+ (Fluo-8AM) in mouse Neuro-2a cells with endogenous P2X7, peptide 0.1-1 uM pre-incubated 30 min [5] is reported as 54.8% and the 4 mM ATP-induced uptake of YO-PRO-1 by mouse Neuro-2a cells (P2X7 macropore), peptide 0.01-10 uM pre-incubated 10 min; dye uptake reduced to the printed percent [6] is reported as 56.2%.

B1: APHC3 (peptide)
chain: GSICLEPKVVGPCTAYFPRFYFNSETGKCTPFIYGGCEGNGNNFETLRACRGICRA
Molecule B1 has a decrease of the 1 mM ATP-induced rise in intracellular Ca2+ (Fluo-8AM) in mouse Neuro-2a cells with endogenous P2X7, peptide 0.1-10 uM pre-incubated 30 min; value at 0.1 uM [5] of 53.2%.
